Consider one molecule from patent publication US20030219839A1 (published 2003).

One test deals with rat PDGF BB (rat, UniProt Q05028 74-182). As to the kind of experiment: solid phase ELISA: plate coated with the named form of PDGF, serial dilutions of mouse C1 Fab (axis in dilutions 1/x, no mass unit), OD. A general note: ELISA stands for enzyme-linked immunosorbent assay.
Test [1] addresses T1, recombinant human platelet derived growth factor (PDGF-BB) (human, UniProt P01127 82-190).
T1 construct: also called human PDGF-BB; PDGF-BB cytokine
As to the kind of experiment: competition ELISA: antibody pre-incubated with 10 ng/ml PDGF-BB, then added to a plate coated with PDGF receptor beta/Fc; receptor-bound PDGF-BB detected by biotinylated anti-PDGF-BB antibody and streptavidin-alkaline phosphatase, OD405; blocked partner: PDGF receptor beta/Fc. The procedure: The ability of the rabbit scFvs to compete with the PDGF-1 receptor for binding to the PDGF-BB cytokine was determined in a competition assay. Binding of the scFvs to their target epitope on the PDGF-BB cytokine prevents PDGF-BB binding to the PDGF receptor coated on the plates. High protein binding 96-well plates were coated with 10 ng/well of recombinant human PDGF receptor beta/Fc chimera (R&D Systems, MN) in PBS overnight at 4° C. The plates were blocked with 5% sucrose/1% BSA/PBS for 1 h at 37° C. Serial dilutions of purified anti-PDGF-BB antibody were incubated with 10 ng/ml of recombinant human PDGF-BB at room temperature for 30 minutes before being added to the blocked and washed plates. After 2 h at room temperature, the plates were washed with PBS/0.05% Tween followed by another 2-hour incubation with biotinylated anti-PDGF-BB antibody (R&D Systems, MN) at room temperature. Next, streptavidin-alkaline phosphatase (Pierce, Rockford, Ill.) was added to the plates and incubated for 30 minutes at room temperature. The plates were washed 3×with PBS/0.05% Tween and 3× with PBS. Sigma 104 substrate suspended in PNPP buffer was added after the final wash step and the signal at OD405 was determined. […] F3 was then selected for humanization.

The target of test [2] is T1, recombinant human platelet derived …. As to the kind of experiment: BIAcore SPR, cytokine immobilised via primary amines, antibody as analyte. How it is done: BIAcore analysis of the original and humanized anti-PDGF clones was performed according to standard procedures. The cytokine was immobilized on the BIAchip by chemical linking via primary amines and the binding behavior of the antibodies was analyzed over 30 min.

For orientation: Kd means the concentration at which binding is half-saturated. A word on the koff: it is a measure of how fast the partners let go of each other. As a reminder, the kon is the second-order rate constant of association.

T1 sequence (P01127 82-190): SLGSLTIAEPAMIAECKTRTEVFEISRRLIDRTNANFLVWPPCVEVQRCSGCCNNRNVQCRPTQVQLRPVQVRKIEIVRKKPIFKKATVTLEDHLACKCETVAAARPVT
Sequence of rat PDGF BB (Q05028 74-182): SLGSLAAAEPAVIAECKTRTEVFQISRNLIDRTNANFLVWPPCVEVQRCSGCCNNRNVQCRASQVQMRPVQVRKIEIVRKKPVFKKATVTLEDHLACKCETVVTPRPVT

B1: C1 mouse anti-PDGF Fab (Fab, V domains shown)
VH: QVLLEQSGSELVRPGASVKLSCKASGYTFTSTWMNWVKKRPDQGLEWIGRIDPYDSETHYNQKFKDKAILTVDKSSSTAYMQLSRLTSEDSAVYYCARGGHMITPAMDYWGQGTSVTVSS
VL: VQVLTQSPAIMSASPGEKVTITCTASSSVSYMHWFQQKPGTSPKLLIYSASNLASGVPARFSGSGSGTSYSLTISRMEAEDAATYYCQQRSSYPWTFGGGTKLEIKR
notes: Mouse light chain and heavy chain Fd cloned in phagemid pRL4; purified over a Ni column; detected by an HA tag; also called mouse C1; murine antibody C1
With B1, in the test with rat PDGF BB, the binding result is on record as “no binding”. For the same molecule, the “IC50 (read off the curve)” value in test [1] is around 0.4 µg/mL. Further, in test [2], the Ka was found to be 2.31e+09 M⁻¹, the Kd was found to be 0.433 nM, the koff was 4.62e-05 s⁻¹ and the kon turned out to be 107000 M⁻¹ s⁻¹.
